The record followed here is US20120108504A1 (TEMPLE UNIVERSITY OF THE COMMONWEALTH SYSTEM OF HIGHER …, published 2012).

This test has as its target T1, leptin receptor (ObR) (human, UniProt P48357 22-1165).
T1 sequence: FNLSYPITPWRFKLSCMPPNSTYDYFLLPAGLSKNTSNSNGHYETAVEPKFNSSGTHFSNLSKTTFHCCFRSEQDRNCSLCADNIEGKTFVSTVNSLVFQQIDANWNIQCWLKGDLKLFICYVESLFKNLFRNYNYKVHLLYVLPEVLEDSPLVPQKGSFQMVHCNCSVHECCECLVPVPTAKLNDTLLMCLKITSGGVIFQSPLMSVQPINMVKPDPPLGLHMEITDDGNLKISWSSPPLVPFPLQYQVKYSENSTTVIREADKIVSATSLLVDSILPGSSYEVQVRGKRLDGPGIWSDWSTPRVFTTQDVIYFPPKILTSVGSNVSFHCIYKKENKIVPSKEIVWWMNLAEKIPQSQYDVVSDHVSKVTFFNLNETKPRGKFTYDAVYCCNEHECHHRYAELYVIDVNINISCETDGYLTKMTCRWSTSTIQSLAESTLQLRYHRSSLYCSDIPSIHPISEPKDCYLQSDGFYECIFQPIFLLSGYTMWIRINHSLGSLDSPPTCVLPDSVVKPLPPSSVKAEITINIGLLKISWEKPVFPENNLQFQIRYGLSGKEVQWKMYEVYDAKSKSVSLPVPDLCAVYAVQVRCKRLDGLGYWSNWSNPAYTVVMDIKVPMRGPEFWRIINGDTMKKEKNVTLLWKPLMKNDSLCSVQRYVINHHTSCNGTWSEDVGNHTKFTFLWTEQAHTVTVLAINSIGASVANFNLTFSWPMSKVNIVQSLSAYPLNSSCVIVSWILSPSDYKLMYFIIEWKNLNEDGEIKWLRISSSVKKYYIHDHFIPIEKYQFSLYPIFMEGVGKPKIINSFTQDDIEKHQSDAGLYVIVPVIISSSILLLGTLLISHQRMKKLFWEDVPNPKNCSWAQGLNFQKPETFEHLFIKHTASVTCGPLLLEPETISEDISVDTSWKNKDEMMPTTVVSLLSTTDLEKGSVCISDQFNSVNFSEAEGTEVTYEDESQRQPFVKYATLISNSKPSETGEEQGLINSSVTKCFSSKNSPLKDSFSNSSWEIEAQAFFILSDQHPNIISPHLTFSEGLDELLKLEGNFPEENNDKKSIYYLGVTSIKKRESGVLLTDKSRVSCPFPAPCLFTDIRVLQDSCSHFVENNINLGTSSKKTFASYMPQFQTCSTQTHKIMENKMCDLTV
Briefly: cell-based or functional assay.

Non-standard residues stand in square brackets, D forms with d. No end group written: not given here. *: point of attachment. αGalNAc = CC(=O)N[C@@H]1[C@@H](O)[C@@H](O)[C@@H](CO)O[C@@H]1*; Tyr(3,5-I2) = N[C@@H](Cc1cc(I)c(O)c(I)c1)C(=O)O; Ahx = NCCCCCC(=O)O

B1: Compound (1) [Tyr(I2)-Ser-Thr(α-GalNAc)-Glu-Val-Val-Ala-Leu-Ser-Arg-AcpNH2] (peptide)
peptide: [Tyr(3,5-I2)]ST(αGalNAc)EVVALSR[Ahx]-NH2
As to B1, the “EC50 (nM), proliferation of ObR-positive LN229 glioblastoma cells, no exogenous leptin” value is less than 1 nM and the “IC50 (nM), inhibition of leptin-induced (12 nM leptin) proliferation of ObR-positive LN229 cells” value turned out to be 100 nM.
